Reference: patent publication US20190309074A1, “DEGLYCOSYLATED ANTIBODY SPECIFICALLY BINDING TO CLEC14A AND USES THEREOF” (WOORI TECHNOLOGIES CORPORATION, priority 2016, published 2019)
Where a chain is given by its changes, count along the chain named. Blank lines part the entries; values can stand above or below the molecule they belong to.

Tests used:
hclec14a-CTLD-Fc = biological target: T1, hclec14a-CTLD-Fc (human, UniProt Q86T13 31-172, limits assumed); experiment: ELISA on hclec14a-CTLD-Fc
T1 construct: domain: C-type lectin-like domain (CTLD); also called human clec14a-CTLD-Fc; human CTLD; not shown: Fc
T1 sequence (looked up): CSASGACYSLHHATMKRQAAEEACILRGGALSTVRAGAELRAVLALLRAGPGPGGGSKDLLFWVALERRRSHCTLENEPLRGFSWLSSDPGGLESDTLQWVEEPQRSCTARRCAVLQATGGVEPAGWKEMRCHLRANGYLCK

mclec14a-CTLD-Fc = biological target: T2, mclec14a-CTLD-Fc (mouse, UniProt Q8VCP9 31-172, limits assumed); experiment: ELISA on mclec14a-CTLD-Fc
T2 construct: domain: C-type lectin-like domain (CTLD); also called mouse clec14a-CTLD-Fc; mouse CTLD; not shown: Fc
T2 sequence (looked up): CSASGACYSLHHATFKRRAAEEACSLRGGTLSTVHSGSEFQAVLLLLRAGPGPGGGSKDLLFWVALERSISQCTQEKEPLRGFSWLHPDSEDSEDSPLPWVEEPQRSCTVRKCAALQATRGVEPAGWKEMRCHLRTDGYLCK

[1] = aggregation and purification amounts of deglycosylated antibodies, before and after φ; format: physicochemical; settings: based on 100 ml culture
[2] = biological target: T3, human CLEC14a on human umbilical vein endothelial cells (HUVECs) (human, UniProt Q86T13 22-490); experiment: flow cytometry on HUVEC
T3 construct: whole, on cells; also called CLEC14a on HUVEC surfaces
T3 sequence (looked up): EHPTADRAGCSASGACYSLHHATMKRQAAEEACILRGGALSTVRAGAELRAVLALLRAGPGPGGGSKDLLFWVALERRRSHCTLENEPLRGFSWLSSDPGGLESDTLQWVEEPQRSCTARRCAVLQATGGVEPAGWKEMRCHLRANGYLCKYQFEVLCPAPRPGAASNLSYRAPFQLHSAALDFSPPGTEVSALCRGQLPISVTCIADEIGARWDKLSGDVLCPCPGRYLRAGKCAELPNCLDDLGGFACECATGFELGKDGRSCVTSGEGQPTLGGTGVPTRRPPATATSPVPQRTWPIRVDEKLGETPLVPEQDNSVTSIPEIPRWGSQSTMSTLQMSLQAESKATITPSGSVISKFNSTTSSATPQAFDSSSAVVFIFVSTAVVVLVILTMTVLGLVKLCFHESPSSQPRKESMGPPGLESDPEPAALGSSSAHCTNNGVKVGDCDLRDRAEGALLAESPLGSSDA
Procedure: (§1) In order to identify cross-species reactivity of the optimized antibodies, HUVECs (human umbilical vein endothelial cells) and MAECs (mouse aortic endothelial cells) were each cultured, the two cell groups were treated with 20 ug/ml of the parent antibody (original C1), deglyco C1, and clones 1, 13 and 16, and whether or not binding ability exists on the surface of two types of cells was identified by flow cytometry.

[3] = biological target: T4, mouse CLEC14a on mouse aortic endothelial cells (MAECs) (mouse, UniProt Q8VCP9 22-459); experiment: flow cytometry on MAEC
T4 construct: whole, on cells
T4 sequence (looked up): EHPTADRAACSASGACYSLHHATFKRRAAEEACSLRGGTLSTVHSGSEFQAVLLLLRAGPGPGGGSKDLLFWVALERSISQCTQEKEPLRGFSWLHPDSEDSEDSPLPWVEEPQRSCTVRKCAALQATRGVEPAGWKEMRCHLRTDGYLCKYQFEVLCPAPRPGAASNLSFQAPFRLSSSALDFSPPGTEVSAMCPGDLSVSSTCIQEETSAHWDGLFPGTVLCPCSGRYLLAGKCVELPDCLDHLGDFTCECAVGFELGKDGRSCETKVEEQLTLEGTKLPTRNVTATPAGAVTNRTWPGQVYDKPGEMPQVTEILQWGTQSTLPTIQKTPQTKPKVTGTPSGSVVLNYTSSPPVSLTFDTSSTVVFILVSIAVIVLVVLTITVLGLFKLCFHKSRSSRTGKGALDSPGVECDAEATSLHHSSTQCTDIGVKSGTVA
Procedure: as §1

[4] = system: HUVECs (human umbilical vein endothelial cells); experiment: flow cytometry cross-species reactivity; format: cell-based; settings: 20 ug/ml
Procedure: as §1

[5] = system: MAECs (mouse aortic endothelial cells); experiment: flow cytometry cross-species reactivity; format: cell-based; settings: 20 ug/ml
Procedure: as §1

HUVEC migration = experiment: IncuCyte HUVEC migration assay; format: cell-based, human; settings: 20 ug/ml
Procedure: In order to analyze in vitro efficacies of the optimized candidate antibodies on endothelial migration, which is another function of angiogenesis, HUVEC migration assay was conducted using an IncuCyte FLR live content imaging system (Essen Bioscience Inc). At this time, regarding a wound, a uniform wound was created using a wound maker commercially available from Incucyte and was treated with 20 ug/ml of respective antibodies, and inhibitory activity against migration was comparatively evaluated.

HUVEC cells = experiment: EGM-dependent HUVEC tube formation; format: cell-based, human; settings: 20 ug/ml
Source text: EGM is a type of complex including a variety of angiogenesis factors, which has been used to induce strong angiogenesis using vascular endothelial cells.

GFP-transfected HUVECs = experiment: IncuCyte real-time VEGF-dependent angiogenesis assay; format: cell-based, human; settings: for anti-angiogenesis activity (tube length and branch point): 20 ug/ml; for changes in tube length (progression of angiogenesis): representative images
Procedure: In order to identify inhibitory activity of optimized candidate antibodies against angiogenesis dependent upon VEGF, which is a key factor of angiogenesis, anti-angiogenesis activity was comparatively analyzed using an IncuCyte FLR live content imaging system (Essen Bioscience Inc.) providing real-time analysis of angiogenesis. First, GFP-transfected HUVECs were seeded on a […] plate, were treated with 36 types of antibodies at a concentration of 20 ug/ml and in vitro efficacy was then compared. At this time, optimized antibodies were comparatively analyzed in terms of efficacy with parental IgG (parent antibody: clone 1 of WO 2013/187556), deglyco C1 and bevacizumab (Avastin) as positive control groups.

binding result (hclec14a-CTLD-Fc): binds
binding result (mclec14a-CTLD-Fc): binds
B1: deglyco C2 IgG (antibody, V domains shown)
VH: EVQLVESGGGLVQPGGSLRLSCAVSGFTFSGYDMSWIRQAPGKGLEWVAGIYPDGGNTYYADSVKGRFTISRDDSKNTFYLQMNSLRAEDTAVYYCARGATWWVLGPFDYWGQGTLVTVSS
VL: DIQLTQSPSSLSASVGDRVTITCTGSSSNIGATAVTWYQQKPGKAPKLLIYADSHRPSGVPSRFSGSGSGTDFTLTISSLQPEDFATYYCGAWDDSLSGYVFGQGTKVEIKR
notes: IgG expressed in HEK293 cells; also called Deg C2

B2: Deglyco-C2: deglycosylated clone 1 IgG; light chain CDR1 TGSSSNIGATAVT (SEQ ID NO: 3) (antibody, V domains shown)
VH: B1 VH
VL: B1 VL
Final um, After φ [1]: 5.018 mg
Final um, Before φ [1]: 5.032 mg
Fraction1, After φ [1]: 0.018 mg
Fraction1, Before φ [1]: 0.019 mg
Fraction2, After φ [1]: 3.702 mg
Fraction2, Before φ [1]: 3.718 mg
Fraction3, After φ [1]: 1.110 mg
Fraction3, Before φ [1]: 1.113 mg
Fraction4, After φ [1]: 0.198 mg
Fraction4, Before φ [1]: 0.201 mg

binding result [2]: binds
binding result [3]: binds
B3: Opti 13 (antibody, V domains shown)
VH: B1 VH with T101M, W102E, W103Q, Y110L
VL: B1 VL with A32R, T33C, A34G
notes: IgG from HEK293 cells; also called clone 13; optimized antibody clone 13

B4: Opti 13: IgG, heavy chain CDR3 GAMEQVLGPFDL (SEQ ID No: 37), VL of Deg C1 (antibody, V domains shown)
VH: B1 VH with T101M, W102E, W103Q, Y110L
VL: B1 VL with A32R, T33C, A34G
binding to HUVEC surface [4]: had cross-species reactivity
binding to MAEC surface [5]: had cross-species reactivity
endothelial migration inhibitory activity (HUVEC migration): same endothelial migration inhibitory activity as parent antibody (original C1), deglyco C1 IgG, and Avastin
suppression of EGM-dependent tube formation (HUVEC cells): efficiently suppressing angiogenesis

B5: Opti 16: IgG, heavy chain CDR3 GARRQVLGCFDF (SEQ ID No: 40), VL of Deg C1 (antibody, V domains shown)
VH: B1 VH with T101R, W102R, W103Q, P107C, Y110F
VL: B1 VL with A32R, T33C, A34G
binding to HUVEC surface [4]: had cross-species reactivity
binding to MAEC surface [5]: had cross-species reactivity
anti-angiogenesis activity (tube length and branch point) (GFP-transfected HUVECs): potent efficacy
changes in tube length (progression of angiogenesis) (GFP-transfected HUVECs): same efficacy as Suramin and Avastin
endothelial migration inhibitory activity (HUVEC migration): same endothelial migration inhibitory activity as parent antibody (original C1), deglyco C1 IgG, and Avastin
suppression of EGM-dependent tube formation (HUVEC cells): efficiently suppressing angiogenesis

B6: Opti 3: IgG, heavy chain CDR3 GATWWVLGAFDY (SEQ ID No: 27), VL of Deg C1 (antibody, V domains shown)
VH: B1 VH with P107A
VL: B1 VL with A32R, T33C, A34G
anti-angiogenesis activity (tube length and branch point) (GFP-transfected HUVECs): potent efficacy
changes in tube length (progression of angiogenesis) (GFP-transfected HUVECs): same efficacy as Suramin and Avastin

B7: Deglyco-C4: deglycosylated clone 1 IgG; light chain CDR1 TGSSSNIGAVVVT (SEQ ID NO: 5) (antibody, V domains shown)
VH: B1 VH
VL: B1 VL with T33V, A34V
Final um, After φ [1]: 1.442 mg
Final um, Before φ [1]: 1.390 mg
Fraction1, After φ [1]: 0.015 mg
Fraction1, Before φ [1]: 0.019 mg
Fraction2, After φ [1]: 1.126 mg
Fraction2, Before φ [1]: 1.135 mg
Fraction3, After φ [1]: 0.251 mg
Fraction3, Before φ [1]: 0.255 mg
Fraction4, After φ [1]: 0.050 mg
Fraction4, Before φ [1]: 0.057 mg

B8: Deglyco-C3: deglycosylated clone 1 IgG; light chain CDR1 TGSSSNIGWSNVT (SEQ ID NO: 4) (antibody, V domains shown)
VH: B1 VH
VL: B1 VL with A32W, T33S, A34N
Final um, After φ [1]: 2.768 mg
Final um, Before φ [1]: 2.918 mg
Fraction1, After φ [1]: 0.012 mg
Fraction1, Before φ [1]: 0.014 mg
Fraction2, After φ [1]: 2.109 mg
Fraction2, Before φ [1]: 2.209 mg
Fraction3, After φ [1]: 0.520 mg
Fraction3, Before φ [1]: 0.580 mg
Fraction4, After φ [1]: 0.127 mg
Fraction4, Before φ [1]: 0.129 mg

B9: Opti 1: IgG, heavy chain CDR3 GAATKVLGKFDC (SEQ ID No: 25), VL of Deg C1 (antibody, V domains shown)
VH: B1 VH with T101A, W102T, W103K, P107K, Y110C
VL: B1 VL with A32R, T33C, A34G
binding to HUVEC surface [4]: had cross-species reactivity
binding to MAEC surface [5]: had cross-species reactivity
anti-angiogenesis activity (tube length and branch point) (GFP-transfected HUVECs): potent efficacy
changes in tube length (progression of angiogenesis) (GFP-transfected HUVECs): same efficacy as Suramin and Avastin
endothelial migration inhibitory activity (HUVEC migration): same endothelial migration inhibitory activity as parent antibody (original C1), deglyco C1 IgG, and Avastin
suppression of EGM-dependent tube formation (HUVEC cells): efficiently suppressing angiogenesis

binding result [2]: binds
binding result [3]: binds
B10: Opti 1 (antibody, V domains shown)
VH: B1 VH with T101A, W102T, W103K, P107K, Y110C
VL: B1 VL with A32R, T33C, A34G
notes: IgG from HEK293 cells; also called optimized antibody clone 1

binding result (hclec14a-CTLD-Fc): binds
binding result (mclec14a-CTLD-Fc): binds
B11: deglyco C4 IgG (antibody, V domains shown)
VH: B1 VH
VL: B1 VL with T33V, A34V
notes: IgG expressed in HEK293 cells; also called Deg C4

binding result (hclec14a-CTLD-Fc): binds
binding result (mclec14a-CTLD-Fc): binds
B12: deglyco C3 IgG (antibody, V domains shown)
VH: B1 VH
VL: B1 VL with A32W, T33S, A34N
notes: IgG expressed in HEK293 cells; also called Deg C3
